Experiment [1] concerns the target T1, TM4SF19 in which 3HA was tagged at the N-terminus (human TM4SF19, NP_612470.2 isoform 1) (human, UniProt Q96DZ7 1-209).
T1 construct: also called 3HA-TM4SF19; TM4SF19 tagged with 3HA in N-terminus; not shown: 3HA tag at the N-terminus
T1 sequence: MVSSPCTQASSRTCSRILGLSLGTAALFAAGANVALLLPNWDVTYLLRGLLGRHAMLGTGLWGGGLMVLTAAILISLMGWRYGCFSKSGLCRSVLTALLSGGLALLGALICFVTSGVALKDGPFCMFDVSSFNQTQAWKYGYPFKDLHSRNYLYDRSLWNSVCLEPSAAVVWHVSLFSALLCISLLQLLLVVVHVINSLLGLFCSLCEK
Description: immunoprecipitation, 293T cells. The text has this: In the same manner as described above, by the transient overexpression of TM4SF19 in which 3HA was tagged at the N-terminus, a wild-type in which 3Flag was tagged at the N-terminus, and a TM4SF19 deletion mutant in 293T cells, binding was confirmed through immunoprecipitation.

In experiment [2] the target is T1, TM4SF19 in which 3HA was tagged at the …. Kind of experiment: immunoprecipitation, 3HA- and 3Flag-tagged TM4SF19 in 293T cells. The source says:
To confirm whether TM4SF19 is involved in cell-to-cell interactions, HA- or flag-tagged TM4SF19 was manufactured. TM4SF19 in which 3HA was tagged at the N-terminus, a wild-type in which 3Flag was tagged at the N-terminus, and a TM4SF19-deletion mutant were subjected to transient overexpression in 293T cells to confirm binding through immunoprecipitation.

B1: hTm4sf19 94-196 (only aa 94-196 of hTM4SF19 remains, other sequences deleted) (other)
chain: VLTALLSGGLALLGALICFVTSGVALKDGPFCMFDVSSFNQTQAWKYGYPFKDLHSRNYLYDRSLWNSVCLEPSAAVVWHVSLFSALLCISLLQLLLVVVHVI
notes: Expresses transmembrane 3, extracellular region 2 (EC2) and transmembrane 4 of TM4SF19; overexpressed in 293T cells; not shown: tag not expressly stated for this mutant (the other mutants carry 3Flag)
On to B1, for which the binding result in experiment [1] is given as “binds”.

B2: wild-type TM4SF19 in which 3Flag was tagged at the N-terminus (human TM4SF19) (other)
chain: T1 sequence
notes: Overexpressed in 293T cells (for the integrins: 293T or Raw 264.7 cells) and tested by immunoprecipitation; also called 3Flag-hTM4SF19; TM4SF19 wt; not shown: 3Flag tag at the N-terminus
Regarding B2, in experiment [2], the binding result is on record as “binds”.

B3: hTM4SF19 94-196Δ (3Flag-tagged deletion mutant lacking transmembrane 3, extracellular region 2 and transmembrane 4) (other)
chain: MVSSPCTQASSRTCSRILGLSLGTAALFAAGANVALLLPNWDVTYLLRGLLGRHAMLGTGLWGGGLMVLTAAILISLMGWRYGCFSKSGLCRSNSLLGLFCSLCEK
notes: the kept ranges are worked out from the printed deletion limits; not shown: 3Flag tag
With B3, the binding result in experiment [1] is recorded as “no binding”.

(Values after US20240132571A1 (MEDPACTO, published 2024).)
